We go through 1 molecule from article PMC7312009, “SIRT7 Deacetylates STRAP to Regulate p53 Activity and Stability” (International Journal of Molecular Sciences, 2020).

The test addresses T1, Flag-tagged SIRT7 (UniProt Q9NRC8 1-400).
T1 construct: also called SIRT7 protein purified from 293T cells; source: purified from 293T cells; HEK293T, transfected, in lysate
T1 sequence (looked up): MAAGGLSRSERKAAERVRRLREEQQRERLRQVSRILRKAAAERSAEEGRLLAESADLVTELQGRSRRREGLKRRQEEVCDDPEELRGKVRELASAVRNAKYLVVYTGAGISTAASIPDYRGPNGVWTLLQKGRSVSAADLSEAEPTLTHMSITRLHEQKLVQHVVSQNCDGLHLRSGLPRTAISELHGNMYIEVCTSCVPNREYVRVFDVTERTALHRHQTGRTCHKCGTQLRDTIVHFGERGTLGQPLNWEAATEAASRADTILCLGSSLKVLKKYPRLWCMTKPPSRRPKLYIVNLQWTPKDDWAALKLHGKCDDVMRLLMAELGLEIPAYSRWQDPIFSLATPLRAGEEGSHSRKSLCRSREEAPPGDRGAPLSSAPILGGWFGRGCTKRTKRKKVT
The experiment in a line: pull-down; 1 μg GST-STRAP fusion protein incubated with Flag-tagged SIRT7 purified from 293T cells in 100 μL BC100 at 4 °C overnight, then glutathione-sepharose beads 2 h; Western blotting. As to conditions: both partners purified. In general terms: In western blotting, separated proteins are transferred to a membrane and probed.

B1: GST-STRAP full length (natural protein, UniProt Q9Y3F4 1-350, looked up)
chain: MAMRQTPLTCSGHTRPVVDLAFSGITPYGYFLISACKDGKPMLRQGDTGDWIGTFLGHKGAVWGATLNKDATKAATAAADFTAKVWDAVSGDELMTLAHKHIVKTVDFTQDSNYLLTGGQDKLLRIYDLNKPEAEPKEISGHTSGIKKALWCSEDKQILSADDKTVRLWDHATMTEVKSLNFNMSVSSMEYIPEGEILVITYGRSIAFHSAVSLDPIKSFEAPATINSASLHPEKEFLVAGGEDFKLYKYDYNSGEELESYKGHFGPIHCVRFSPDGELYASGSEDGTLRLWQTVVGKTYGLWKCVLPEEDSGELAKPKIGFPETTEEELEEIASENSDCIFPSAPDVKA
notes: Serine-threonine kinase receptor-associated protein (STRAP), full length, subcloned into pGEX4T-3; also called GST-STRAP (FL); full-length STRAP (WT); source: purified GST fusion protein (pGEX4T-3)
Regarding B1, the binding result is reported as “binds”.
